Test results taken from patent US6498233, “Nucleic acid transfer system” (Winfried).

Biological target: scFv(FRP5)-deltaETA-deltaGAL4 (synthetic construct (Saccharomyces …))
Assay: EMSA; […] (printed ml); 50 mM Hepes pH 7.5, 50 mM KCl, 5 mM MgCl2, […], room temperature; […] (11.3)
Settings: tags: N-terminal FLAG and His6, C-terminal KDEL signal; chain copies: 2 (stated; dimer per site, two dimers on tandem site); label: 5'-32P

B1: G4 oligonucleotide (two GAL4 motifs) (dsDNA)
DNA 1: AGCTTGGATCCGGAGGACAGTCCTCCGGAGACCGGAGGACAGTCCTCC
DNA 2: GATCGGAGGACTGTCCTCCGGTCTCCGGAGGACTGTCCTCCGGATCCA
  binding result: binds
